Patent US20100310509A1 (published 2010)

T1: gp130 bound OSM-WT (gp130:OSM-WT) (human, UniProt P40189 23-619)
T1 construct: extracellular domain; Non-covalent complex formed on the plate: gp130 coated, then 200 nM OSM-WT; also called OSM-WT with gp130; not shown: N-terminal FLAG tag
T1 sequence 1: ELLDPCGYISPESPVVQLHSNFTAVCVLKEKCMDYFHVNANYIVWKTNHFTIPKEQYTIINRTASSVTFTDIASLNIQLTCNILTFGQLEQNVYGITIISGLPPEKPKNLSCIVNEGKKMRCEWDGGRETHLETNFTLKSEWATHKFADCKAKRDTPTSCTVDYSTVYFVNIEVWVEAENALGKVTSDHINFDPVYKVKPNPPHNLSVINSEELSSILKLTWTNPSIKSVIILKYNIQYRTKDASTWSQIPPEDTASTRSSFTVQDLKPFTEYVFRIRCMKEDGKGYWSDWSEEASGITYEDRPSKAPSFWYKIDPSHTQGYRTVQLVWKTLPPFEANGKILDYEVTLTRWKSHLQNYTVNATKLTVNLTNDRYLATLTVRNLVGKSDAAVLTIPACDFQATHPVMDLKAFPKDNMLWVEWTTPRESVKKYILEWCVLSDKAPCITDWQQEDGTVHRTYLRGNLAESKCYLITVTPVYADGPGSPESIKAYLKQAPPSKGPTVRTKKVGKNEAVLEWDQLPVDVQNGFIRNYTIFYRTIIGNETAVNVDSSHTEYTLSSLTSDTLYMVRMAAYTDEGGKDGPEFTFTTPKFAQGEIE
T1 sequence 2: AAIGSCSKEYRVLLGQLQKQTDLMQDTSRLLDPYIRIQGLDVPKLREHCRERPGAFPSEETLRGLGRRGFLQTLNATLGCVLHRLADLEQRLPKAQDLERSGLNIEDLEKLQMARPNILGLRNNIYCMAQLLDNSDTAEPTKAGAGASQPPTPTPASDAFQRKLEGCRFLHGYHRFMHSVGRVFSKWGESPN

B1: soluble human LIFR (leukemia inhibitory factor receptor) (receptor, UniProt P42702 45-833, looked up)
chain: QKKGAPHDLKCVTNNLQVWNCSWKAPSGTGRGTDYEVCIENRSRSCYQLEKTSIKIPALSHGDYEITINSLHDFGSSTSKFTLNEQNVSLIPDTPEILNLSADFSTSTLYLKWNDRGSVFPHRSNVIWEIKVLRKESMELVKLVTHNTTLNGKDTLHHWSWASDMPLECAIHFVEIRCYIDNLHFSGLEEWSDWSPVKNISWIPDSQTKVFPQDKVILVGSDITFCCVSQEKVLSALIGHTNCPLIHLDGENVAIKIRNISVSASSGTNVVFTTEDNIFGTVIFAGYPPDTPQQLNCETHDLKEIICSWNPGRVTALVGPRATSYTLVESFSGKYVRLKRAEAPTNESYQLLFQMLPNQEIYNFTLNAHNPLGRSQSTILVNITEKVYPHTPTSFKVKDINSTAVKLSWHLPGNFAKINFLCEIEIKKSNSVQEQRNVTIKGVENSSYLVALDKLNPYTLYTFRIRCSTETFWKWSKWSNKKQHLTTEASPSKGPDTWREWSSDGKNLIIYWKPLPINEANGKILSYNVSCSSDEETQSLSEIPDPQHKAEIRLDKNDYIISVVAKNSVGSSPPSKIASMEIPNDDLKIEQVVGMGKGILLTWHYDPNMTCDYVIKWCNSSRSEPCLMDWRKVPSNSTETVIESDEFRPGIRYNFFLYGCRNQGYQLLRSMIGYIEELAPIVAPNFTVEDTSADSILVKWEDIPVEELRGFLRGYLFYFGKGERDTSKMRVLESGRSDIKVKNITDISQKTLRIADLQGKTSYHLVLRAYTDGGVGPEKSMYVVTKENS
notes: extracellular domain; Bought; also called soluble LIFR

Assays:
[1] = target: B1; experiment: ELISA, apparent KD (KD,App), gp130 coated, saturating cytokine, soluble LIFR titrated (with gp130)
Description: (§1) FIG. 13 graphically depicts an ELISA analysis of soluble OSMR and soluble LIFR binding with LIF, OSM-WT, OSM-M1 and OSM-M2 or gp130 bound LIF (gp130:LIF), OSM-WT (gp130:OSM-WT), OSM-M1 (gp130:OSM-M1) and OSM-M2 (gp130:OSM-M2). Cytokines (LIF, OSM-WT, OSM-M1 or OSM-M2) immobilized on an ELISA plate in the absence (A,C) or presence (B,D) of gp130 were treated with various concentrations of soluble OSMR (A,B) or soluble LIFR (C,D). Equilibrium KD values were estimated using a non-linear curve fitting to the binding data using GraphPad Prism (Graph Pad Software. LaJolla, Calif.). In addition, see Table 3.
(§2) Enzyme-linked immunosorbent assay (ELISA): ELISA was used to evaluate the equilibrium binding strength of the interaction between the cytokines and their receptors. This technique has traditionally been used as a sensitive method to quantify the binding affinities between two interacting proteins. However, unlike in SPR, ELISA involves immobilization of the proteins on a flat plastic surface driven by hydrophobic and ionic interactions. This might cause some distortion in the 3 dimensional structure of immobilized protein which leads to inaccuracies in the estimation of dissociation constants. It is thus important to bear in mind that the values estimated using this technique are to be used only for comparison between species but not as true equilibrium binding constants. The results obtained using this technique will thus be presented as apparent equilibrium dissociation constants (K_{D,App}). For direct interaction studies, cytokines (LIF, OSM-WT, OSM-M1 or OSM-M2) were immobilized on the 96 well ELISA plate by incubating the wells with 200 μl of 5 nM cytokine solution in PBS, pH 7.4 overnight at 4° C. The wells were then blocked with blocking buffer (4% BSA in PBS) for 1 hour at room temperature. After washing with 250 μl of washing buffer (0.05% Tween-20 in PBS) 3 times, the cytokines were treated with a series of concentrations of soluble human LIFR (Catalog #249-LR-050/CF, R&D Systems, Minneapolis, Minn.) or OSMR (Catalog #4389-OR-050, R&D Systems, Minneapolis, Minn.) in 150 μl of blocking buffer for 2 hours.

[2] = target: T1, gp130 bound OSM-WT (gp130:OSM-WT); experiment: as above
Description: as §1, §2

Row | Kd [1] [nM] | Kd [2] [nM] | Binder
1 | 10.3 |  | gp130 bound LIF (gp130:LIF) (other, Non-covalent complex formed on the plate: gp130 coated, then saturating cytokine; also called LIF with gp130) chain 1: ELLDPCGYISPESPVVQLHSNFTAVCVLKEKCMDYFHVNANYIVWKTNHFTIPKEQYTIINRTASSVTFTDIASLNIQLTCNILTFGQLEQNVYGITIISGLPPEKPKNLSCIVNEGKKMRCEWDGGRETHLETNFTLKSEWATHKFADCKAKRDTPTSCTVDYSTVYFVNIEVWVEAENALGKVTSDHINFDPVYKVKPNPPHNLSVINSEELSSILKLTWTNPSIKSVIILKYNIQYRTKDASTWSQIPPEDTASTRSSFTVQDLKPFTEYVFRIRCMKEDGKGYWSDWSEEASGITYEDRPSKAPSFWYKIDPSHTQGYRTVQLVWKTLPPFEANGKILDYEVTLTRWKSHLQNYTVNATKLTVNLTNDRYLATLTVRNLVGKSDAAVLTIPACDFQATHPVMDLKAFPKDNMLWVEWTTPRESVKKYILEWCVLSDKAPCITDWQQEDGTVHRTYLRGNLAESKCYLITVTPVYADGPGSPESIKAYLKQAPPSKGPTVRTKKVGKNEAVLEWDQLPVDVQNGFIRNYTIFYRTIIGNETAVNVDSSHTEYTLSSLTSDTLYMVRMAAYTDEGGKDGPEFTFTTPKFAQGEIE chain 2: not shown
2 | 12.6 |  | gp130 bound OSM-M1 (gp130:OSM-M1) (other, human, extracellular domain; Non-covalent complex formed on the plate: gp130 coated, then 200 nM OSM-M1; also called OSM-M1 with gp130; not shown: N-terminal FLAG tag) chain 1: ELLDPCGYISPESPVVQLHSNFTAVCVLKEKCMDYFHVNANYIVWKTNHFTIPKEQYTIINRTASSVTFTDIASLNIQLTCNILTFGQLEQNVYGITIISGLPPEKPKNLSCIVNEGKKMRCEWDGGRETHLETNFTLKSEWATHKFADCKAKRDTPTSCTVDYSTVYFVNIEVWVEAENALGKVTSDHINFDPVYKVKPNPPHNLSVINSEELSSILKLTWTNPSIKSVIILKYNIQYRTKDASTWSQIPPEDTASTRSSFTVQDLKPFTEYVFRIRCMKEDGKGYWSDWSEEASGITYEDRPSKAPSFWYKIDPSHTQGYRTVQLVWKTLPPFEANGKILDYEVTLTRWKSHLQNYTVNATKLTVNLTNDRYLATLTVRNLVGKSDAAVLTIPACDFQATHPVMDLKAFPKDNMLWVEWTTPRESVKKYILEWCVLSDKAPCITDWQQEDGTVHRTYLRGNLAESKCYLITVTPVYADGPGSPESIKAYLKQAPPSKGPTVRTKKVGKNEAVLEWDQLPVDVQNGFIRNYTIFYRTIIGNETAVNVDSSHTEYTLSSLTSDTLYMVRMAAYTDEGGKDGPEFTFTTPKFAQGEIE chain 2: AAIGSCSKEYRVLLGQLQKQTDLMQDTSRLLDPYIRIQGLDVPKLREHCRERPGAFPSEETLRGLGRRGFLQTLNATLGCVLHRLADLEQRLGAPSGLNIEDLEKLQMARPNILGLRNNIYCMAQLLDNSDTAEPTKAGAGASQPPTPTPASDAFQRKLEGCRFLHGYHRFMHSVGRVFSKWGESPN
3 | 9.13 |  | gp130 bound OSM-M2 (gp130:OSM-M2) (other, human, extracellular domain; Non-covalent complex formed on the plate: gp130 coated, then 200 nM OSM-M2; also called OSM-M2 with gp130; not shown: N-terminal FLAG tag) chain 1: ELLDPCGYISPESPVVQLHSNFTAVCVLKEKCMDYFHVNANYIVWKTNHFTIPKEQYTIINRTASSVTFTDIASLNIQLTCNILTFGQLEQNVYGITIISGLPPEKPKNLSCIVNEGKKMRCEWDGGRETHLETNFTLKSEWATHKFADCKAKRDTPTSCTVDYSTVYFVNIEVWVEAENALGKVTSDHINFDPVYKVKPNPPHNLSVINSEELSSILKLTWTNPSIKSVIILKYNIQYRTKDASTWSQIPPEDTASTRSSFTVQDLKPFTEYVFRIRCMKEDGKGYWSDWSEEASGITYEDRPSKAPSFWYKIDPSHTQGYRTVQLVWKTLPPFEANGKILDYEVTLTRWKSHLQNYTVNATKLTVNLTNDRYLATLTVRNLVGKSDAAVLTIPACDFQATHPVMDLKAFPKDNMLWVEWTTPRESVKKYILEWCVLSDKAPCITDWQQEDGTVHRTYLRGNLAESKCYLITVTPVYADGPGSPESIKAYLKQAPPSKGPTVRTKKVGKNEAVLEWDQLPVDVQNGFIRNYTIFYRTIIGNETAVNVDSSHTEYTLSSLTSDTLYMVRMAAYTDEGGKDGPEFTFTTPKFAQGEIE chain 2: AAIGSCSKEYRVLLGQLQKQTDLMQDTSRLLDPYIRIQGLDVPKLREHCRERPGAFPSEETLRGLGRRGFLQTLNATLGCVLHRLADLEQRLGGGNIEDLEKLQMARPNILGLRNNIYCMAQLLDNSDTAEPTKAGAGASQPPTPTPASDAFQRKLEGCRFLHGYHRFMHSVGRVFSKWGESPN
4 |  | 70.3 | B1
